Laboratory results as given in US20230201357, “D-DIMER-SPECIFIC APTAMERS AND METHODS OF USE IN DIAGNOSTICS, THERAPEUTIC AND THERANOSTIC PURPOSES” (APTAMER DIAGNOSTIC, INC., published 2023).

Assays:
[1] = target: T1, D-dimer (cross-linked fibrin degradation product) (Homo sapiens, UniProt P02671;P02675;P02679 SEQ:1-87,SEQ:1-328,SEQ:1-324); assay: SPR; SPRi, biotinylated aptamer on streptavidin gold, 10 nM D-dimer in flow; ka 2.0e6, kd 0.0048 per s; details: tags: none stated; about 180 kDa; chain copies: 2 of each chain (inferred); label: 3' biotin
Method: Interaction between ADI1701 and D-dimer was analyzed by a SPR device, Openplex SPRi system from Horiba Scientific. Various amounts of ADI1701 (5 fmol, 50 fmmol and 500 fmol) were immobilized on a gold sensor chip, and D-dimer (10 nM) was injected to the flow cell, and ScrubberGen Ver. 2.0g software was used to subtract the references. […] Nonspecific binding of D-dimer to ADI1701scram was subtracted at the respective concentrations.
Further studies on the specificity and affinity of binding of ADI1701 to D-dimer were performed using Surface plasmon resonance (SPR). SPR has become an important optical bio-sensing technology in the areas of biochemistry, biology, and medical sciences because of its real-time, label-free, and noninvasive nature. Various amounts of biotinylated ADI1701 were immobilized on streptavidin coated gold surface and D-dimer to flow through. It is shown herein that ADI1701 binds directly to D-Dimer (FIG. 8).

[2] = target: T2, Fibrinogen (UniProt P02671-2;P02675;P02679-2 P02671-2:20-644,P02675:31-491,P02679-2:27-437); assay: ELONA; 25 nM aptamer, immobilized fibrinogen; low D-dimer plasma also negative; details: chain copies: 2; label: 3' biotin
Method: (§1) 25 nM of either 3′ Bioitnilated ADI1701, Truncation 1, Truncation 2, Truncation 3, Truncation 4, Truncation 5, scrambled sequence 1, scrambled sequence 2 and scrambled sequence 3 was incubated with D-Dimer protein immobilized on a 96 well ELISA plate. As a control, 3′ Biotin-ADI1701 was incubated with fibrinogen or two plasma samples from donors with low D-Dimer levels (<200 ng/ml) immobilized on the plate. Absorbance was measured after incubation with streptavidin horse radish peroxidase bound to the biotinylated aptamer in the presence of the substrate 3,3′,5,5′-Tetramethylbenzidine (TMB). […] Deleting three or five bases from the 5′ end of ADI1701 decreased the binding to D-dimer by 33%. […] The values shown are subtracted from the absorbance measured in the presence of albumin that was used as the blank.
(§2) Various truncations were made to the 3′ Biotinylated-ADI1701 aptamer from the 5′ and 3′-ends. Deleting as little as 3 bases from the 5′-end or 5 bases from the 3′-end affected the binding of ADI1701 to D-dimer (FIG. 7). Again, none of the scrambled sequences with Biotin label on either the 5′ or 3′-ends presented any binding to D-dimer.

[3] = target: T1, D-dimer (cross-linked fibrin …); assay: latex bead agglutination; seen at lower concentration than with fibrinogen; details: tags: none stated; about 180 kDa; chain copies: 2 of each chain (inferred)
Method: (§3) FIGS. 10A and 10B show photomicrographs of Latex-Aptamer Beads at Different Preparations and at Two Extreme Levels of D-Dimer Concentration. […] The well concentration of the proteins are (serial dilution from left to right, per 150 uL total well volume): 10 nM, 5 nM, 2.5 nM and 1.25 nM of D-Dimer; 10 nM, 5 nM, 2.5 nM and 1.25 nM of Fibrinogen; 750 nM, 375 nM, 188 nM and 94 nM of the BSA. (Ref: NB3, p 19-20, Aug. 29, 2017). 50 ul of aptamer conjugated to the latex beads were added to each well.
(§4) FIG. 10 represents an image of the wells section of a 96-well plate with the initial testing of coagulation.

[4] = target: Bovine serum albumin (Bos taurus, UniProt P02769 P02769:25-607); assay: latex bead agglutination, no agglutination at highest BSA amount
Method: as §3, §4

[5] = target: T2, Fibrinogen; assay: EMSA; native PAGE, no band overlapping fibrinogen; details: chain copies: 2
[6] = target: T1, D-dimer (cross-linked fibrin …); assay: ELONA; estimated from saturation curve; text says 5' biotin, FIG. 6 legend says 3' biotin; details: tags: none stated; about 180 kDa; chain copies: 2 of each chain (inferred); label: 5' biotin
[7] = target: T1, D-dimer (cross-linked fibrin …); assay: ELONA; 25 nM; details: tags: none stated; about 180 kDa; chain copies: 2 of each chain (inferred); label: biotin (5' or 3')
Method: as §1, §2

T1 sequence (P02671 130-216, chain 1 of 3): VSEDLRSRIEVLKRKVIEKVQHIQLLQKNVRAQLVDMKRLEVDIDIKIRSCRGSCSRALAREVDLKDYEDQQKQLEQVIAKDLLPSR
T1 sequence (P02675 164-491, chain 2 of 3): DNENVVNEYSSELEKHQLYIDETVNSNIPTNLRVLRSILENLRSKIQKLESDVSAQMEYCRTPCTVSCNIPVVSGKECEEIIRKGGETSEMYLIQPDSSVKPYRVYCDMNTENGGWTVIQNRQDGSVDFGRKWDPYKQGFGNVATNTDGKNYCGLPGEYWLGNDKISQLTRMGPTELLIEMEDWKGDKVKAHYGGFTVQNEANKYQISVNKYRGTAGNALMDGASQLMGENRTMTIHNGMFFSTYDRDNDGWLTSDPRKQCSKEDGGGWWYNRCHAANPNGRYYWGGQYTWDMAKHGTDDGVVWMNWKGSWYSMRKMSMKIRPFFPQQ
T1 sequence (P02679 other isoform, or with tags, fused parts or gaps, chain 3 of 3): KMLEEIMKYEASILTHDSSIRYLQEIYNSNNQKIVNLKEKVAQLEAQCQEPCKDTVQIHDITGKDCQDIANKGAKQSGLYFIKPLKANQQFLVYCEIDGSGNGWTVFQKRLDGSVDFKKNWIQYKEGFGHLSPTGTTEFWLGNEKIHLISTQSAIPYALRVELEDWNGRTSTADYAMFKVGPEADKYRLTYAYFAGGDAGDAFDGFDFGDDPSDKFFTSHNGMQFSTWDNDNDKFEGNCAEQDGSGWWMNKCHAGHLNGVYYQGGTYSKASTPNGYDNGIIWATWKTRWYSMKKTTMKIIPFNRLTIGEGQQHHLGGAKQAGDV
T2 sequence (P02671 other isoform, or with tags, fused parts or gaps, chain 1 of 3): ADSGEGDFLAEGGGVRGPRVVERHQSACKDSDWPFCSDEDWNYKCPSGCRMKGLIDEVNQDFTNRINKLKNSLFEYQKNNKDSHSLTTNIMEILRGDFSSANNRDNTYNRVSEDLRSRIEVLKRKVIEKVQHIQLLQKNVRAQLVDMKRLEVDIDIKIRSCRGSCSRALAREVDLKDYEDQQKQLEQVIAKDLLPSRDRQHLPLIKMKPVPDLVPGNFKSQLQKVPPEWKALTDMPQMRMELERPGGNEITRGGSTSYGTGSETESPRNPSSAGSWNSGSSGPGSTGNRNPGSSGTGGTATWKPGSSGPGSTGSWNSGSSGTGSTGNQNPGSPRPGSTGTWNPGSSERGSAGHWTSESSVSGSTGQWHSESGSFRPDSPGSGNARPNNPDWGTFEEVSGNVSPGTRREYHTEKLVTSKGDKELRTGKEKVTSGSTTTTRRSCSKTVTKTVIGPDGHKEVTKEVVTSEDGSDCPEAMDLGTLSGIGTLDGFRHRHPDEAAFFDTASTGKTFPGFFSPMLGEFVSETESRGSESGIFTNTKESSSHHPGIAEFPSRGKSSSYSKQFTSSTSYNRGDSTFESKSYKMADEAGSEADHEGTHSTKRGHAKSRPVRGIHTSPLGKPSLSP
T2 sequence (P02675 31-491, chain 2 of 3): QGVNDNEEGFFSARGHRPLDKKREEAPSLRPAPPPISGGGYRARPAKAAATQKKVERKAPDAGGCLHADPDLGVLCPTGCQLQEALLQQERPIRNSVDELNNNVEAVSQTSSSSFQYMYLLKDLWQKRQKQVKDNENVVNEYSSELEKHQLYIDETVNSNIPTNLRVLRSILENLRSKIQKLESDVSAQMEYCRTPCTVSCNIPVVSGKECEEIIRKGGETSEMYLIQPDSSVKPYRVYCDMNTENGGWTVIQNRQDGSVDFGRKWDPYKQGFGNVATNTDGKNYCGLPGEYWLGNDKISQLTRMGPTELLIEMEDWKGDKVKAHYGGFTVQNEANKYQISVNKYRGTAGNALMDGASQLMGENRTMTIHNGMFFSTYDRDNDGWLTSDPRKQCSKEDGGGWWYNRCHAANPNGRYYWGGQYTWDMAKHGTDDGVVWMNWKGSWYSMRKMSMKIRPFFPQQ
T2 sequence (P02679 other isoform, or with tags, fused parts or gaps, chain 3 of 3): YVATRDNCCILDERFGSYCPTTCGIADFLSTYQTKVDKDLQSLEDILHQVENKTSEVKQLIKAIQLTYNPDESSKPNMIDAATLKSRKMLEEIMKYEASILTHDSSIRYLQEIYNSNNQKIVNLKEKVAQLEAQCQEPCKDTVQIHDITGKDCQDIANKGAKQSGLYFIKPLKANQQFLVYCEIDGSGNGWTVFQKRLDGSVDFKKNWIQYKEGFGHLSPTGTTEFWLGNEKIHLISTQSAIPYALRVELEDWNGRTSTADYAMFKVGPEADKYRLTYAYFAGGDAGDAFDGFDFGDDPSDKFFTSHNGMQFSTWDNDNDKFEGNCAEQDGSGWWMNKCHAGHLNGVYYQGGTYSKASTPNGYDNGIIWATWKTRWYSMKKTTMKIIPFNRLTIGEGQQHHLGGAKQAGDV
Sequence of Bovine serum albumin (P02769 25-607, one chain of several): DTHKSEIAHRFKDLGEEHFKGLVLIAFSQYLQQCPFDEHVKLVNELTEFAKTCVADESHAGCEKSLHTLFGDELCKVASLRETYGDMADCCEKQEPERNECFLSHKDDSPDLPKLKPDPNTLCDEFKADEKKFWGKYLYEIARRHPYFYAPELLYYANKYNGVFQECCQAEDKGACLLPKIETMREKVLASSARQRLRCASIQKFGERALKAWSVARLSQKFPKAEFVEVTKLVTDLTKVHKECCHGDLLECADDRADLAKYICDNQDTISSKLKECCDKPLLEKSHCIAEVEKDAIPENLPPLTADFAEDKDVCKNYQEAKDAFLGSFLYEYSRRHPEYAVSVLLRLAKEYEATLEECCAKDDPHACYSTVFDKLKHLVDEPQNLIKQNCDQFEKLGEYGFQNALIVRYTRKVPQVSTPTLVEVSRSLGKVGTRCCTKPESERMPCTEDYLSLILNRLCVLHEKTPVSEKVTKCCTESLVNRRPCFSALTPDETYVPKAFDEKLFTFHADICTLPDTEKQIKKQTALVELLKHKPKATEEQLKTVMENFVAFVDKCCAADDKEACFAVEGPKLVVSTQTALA

Binder: GCGCGGTCCCGATTTGGTGTAAAATTCCCTCAGCCCTACA (ssDNA) [3'Biotin-ADI1701]
- Kd [1]: 2.5 nM
- binding result [2]: no binding

Binder: GCGCGGTCCCGATTTGGTGTAAAATTCCCTCAGCCCTACA (ssDNA, NH2-C6 linker, latex conjugate) [ADI1701-latex (NH2-C6-ADI1701 coupled to beads)]
- binding result [3]: binds
- binding result [4]: no binding

Binder: GCGCGGTCCCGATTTGGTGTAAAATTCCCTCAGCCCTACA (ssDNA) [ADI1701]
- binding result [5]: no binding

Binder: GCGCGGTCCCGATTTGGTGTAAAATTCCCTCAGCCCTACA (ssDNA) [5'Biotin-ADI1701]
- Kd [6]: ~10 nM

Binder: ACTACCGATGCGGACTTATCCGCACGTACCGCTATTGTAG (ssDNA) [Scrambled Sequence 2]
- binding result [7]: no binding

Binder: TTGTTAGATACTCGCTCTCATCCGCCGTACAACTGGCCAG (ssDNA) [Scrambled Sequence 1]
- binding result [7]: no binding
